Tests used:
[1] = molecular target: human TSH receptor (CHO-JP09 cells) (human, UniProt P16473 21-764); test: cell-based or functional assay
[2] = molecular target: hCG (LH/CG) receptor of MA-10 transformed murine Leydig cells (murine, UniProt P30730 27-700); test: cell-based or functional assay
hCG (LH/CG) receptor of MA-10 transformed murine Leydig cells, sequence (P30730 27-700): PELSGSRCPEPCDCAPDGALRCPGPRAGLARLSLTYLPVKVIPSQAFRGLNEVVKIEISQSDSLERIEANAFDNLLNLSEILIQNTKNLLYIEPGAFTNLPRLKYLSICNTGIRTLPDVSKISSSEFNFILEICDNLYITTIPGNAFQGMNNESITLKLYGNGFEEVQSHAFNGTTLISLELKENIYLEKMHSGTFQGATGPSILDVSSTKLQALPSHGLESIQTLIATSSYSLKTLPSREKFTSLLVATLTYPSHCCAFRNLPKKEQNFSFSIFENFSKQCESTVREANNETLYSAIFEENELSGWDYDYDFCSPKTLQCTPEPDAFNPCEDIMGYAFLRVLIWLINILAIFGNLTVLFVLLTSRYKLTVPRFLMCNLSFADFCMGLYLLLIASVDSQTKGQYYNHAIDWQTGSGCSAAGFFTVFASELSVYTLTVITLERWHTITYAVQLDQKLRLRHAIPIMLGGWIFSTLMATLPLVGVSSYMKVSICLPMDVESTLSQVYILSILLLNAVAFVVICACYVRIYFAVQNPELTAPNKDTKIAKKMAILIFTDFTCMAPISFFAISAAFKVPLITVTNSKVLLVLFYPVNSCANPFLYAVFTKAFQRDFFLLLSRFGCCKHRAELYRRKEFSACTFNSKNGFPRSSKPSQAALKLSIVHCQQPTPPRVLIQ

| cAMP stimulation in JP09 cells, EC50 [1] [ng/mL] | cAMP stimulation in JP09 cells, Relative potency (WT = 1) [1] | Progesterone synthesis in MA10 cells, EC50 [2] [ng/mL] | Progesterone synthesis in MA10 cells, Max (%) [2] | Binder |
| --- | --- | --- | --- | --- |
| 6.7 | 1 fold (WT = 1) |  |  | wild-type human thyroid stimulating hormone (ligand) chain 1: not shown chain 2: FCIPTEYTMHIERRECAYCLTINTTICAGYCMTRDINGKLFLPKYALSQDVCTYRDFIYRTVEIPGCPLHVAPYFSYPVALSCKCGKCNTDYSDCIHEAIKTNYCTKPQKSY |
|  |  | 6.9 | 100 % of WT-hCG | wild-type human chorionic gonadotropin (ligand) chain 1: not shown chain 2: SKEPLRPRCRPINATLAVEKEGCPVCITVNTTICAGYCPTMTRVLQGVLPALPQVVCNYRDVRFESIRLPGCPRGVNPVVSYAVALSCQCALCRRSTTDCGGPKDHPLTCDDPRFQDSSSSKAPPPSLPSPSRLPGPSDTPILPQ |

Source: patent US7070788 (US Dept. of Health and Human Services, dated 2006)
